Measurements: patent US12679878B2, “CRF2 receptor agonists and their use in therapy” (SANOFI, priority 2020, dated 2026)
One block for each molecule: values may come before it. Starred links: 1 amine or outer side, 2 acyl side, 3 side chain; linkers in the order of their positions; H or OH if unused. Residues, ends and D or L forms follow the SMILES beside them. Groups on a side chain read outwards from the residue. No end group written: not given here. *: point of attachment. C18 diacid = O=C(O)CCCCCCCCCCCCCCCCC(=O)*; γGlu = O=C(O)[C@H](CCC(=O)[*:2])N[*:1]; Palmitoyl = CCCCCCCCCCCCCCCC(=O)*; AEEA = NCCOCCOCC(=O)O

Experiments:
[1] = Effect on body mass, body fat content and food intake in high-fat diet fed (DIO) mice (Example 18); type: in vivo, C57BL/6N Crl mice
Method: The peptide of SEQ ID NO: 35 was assessed for its ability to reduce body mass and body fat content in mice. Its efficacy was compared with that of a reference compound, namely the compound of Example 4 of WO2018013803 (Alsina-Fernandez; Eli Lilly and Company), referred to herein as “Compound A”.
Female C57BL/6N Crl mice were group housed under vivarium conditions that included a 12 h light/dark cycle and a room temperature of 23±1° C. All animals had free access to water and diet (Ssniff adjusted high fat diet: TD.97366, Soest, Germany) for 18 weeks prior to pharmacological intervention (dosing phase). After the pre-feeding period, mice were single housed and randomized according to body weight to treatment groups with n=8, so that each group has similar mean body weight. At the start of the study, mice were between 25-26 weeks old with body weight of 42-50 g. Mice were treated every second day during late afternoon hours prior lights off with a subcutaneous injection of 8 nmol/kg of the test compounds or their vehicle (phosphate-buffered saline (PBS). Body weight and food intake were measured daily throughout the dosing phase while body fat content was measured at day 0 prior to the start of treatment and at day 15. The study was terminated on day 15.
For statistical analyses a One-Way Analysis of Variance (ANOVA) was performed with SigmaStat 3.5. The test was performed with a risk alpha of 0.050 and a comparison versus the high fat diet-Vehicle group was performed with Dunnett's tests.

[2] = Effect on blood pressure, telemetry (Example 17); type: in vivo; details: Sprague Dawley rats, 0.1 mg/kg SC
In short: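 Sprague Dawley rats with an aortic-catheter telemetry implant, recovered at least 2 weeks, given compound or vehicle at 0.1 mg/kg SC. HR, SBP, DBP and MBP recorded continuously for 48 h. Each 4-hour post-dose mean was compared with a 1-hour pre-dose basal mean.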

[3] = target: T1, recombinant human CRF2 (HEK cell membranes) (human, UniProt Q13324 1-411); assay: radioligand competition against [125]sauvagine (0.1 nM), HEK membranes with recombinant human CRF2; Cheng Prusoff
T1 construct: Whole receptor in membranes prepared from HEK cells; also called CRF2a (h); CRF2 receptor
T1 sequence (looked up): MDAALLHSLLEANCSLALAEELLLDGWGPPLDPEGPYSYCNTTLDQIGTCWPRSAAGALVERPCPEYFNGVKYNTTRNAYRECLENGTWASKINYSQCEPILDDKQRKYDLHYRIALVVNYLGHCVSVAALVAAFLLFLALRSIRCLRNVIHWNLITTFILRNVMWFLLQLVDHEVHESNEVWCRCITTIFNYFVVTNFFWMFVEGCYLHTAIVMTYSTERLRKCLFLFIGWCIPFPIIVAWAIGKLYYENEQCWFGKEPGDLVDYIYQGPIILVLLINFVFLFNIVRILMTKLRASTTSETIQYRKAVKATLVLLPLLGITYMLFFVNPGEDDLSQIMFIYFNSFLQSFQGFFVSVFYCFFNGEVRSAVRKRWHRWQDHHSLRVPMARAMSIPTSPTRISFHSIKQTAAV
Method: (§1) HEK cells expressing recombinant human CRF2 were used as a source of receptor for membrane preparation.
(§2) IC50 values (concentration causing a half-maximal inhibition of control specific binding) and Hill coefficients (nH) were determined by non-linear regression analysis of the competition curves generated with mean replicate values using Hill equation curve fitting. The inhibition constants (Ki) were calculated using the Cheng Prusoff equation [Ki=IC50/(1+L/KD) where L is the concentration of radioligand in the assay, and KD is the affinity of the radioligand for the receptor). A Scatchard plot was used to determine the KD.

[4] = target: T1, recombinant human CRF2 (HEK cell …); assay: Hill coefficient of the competition curve against [125]sauvagine, HEK membranes with recombinant human CRF2
Method: as §1, §2

[5] = target: T2, anti-target CRF1R receptor (UniProt P34998 24-415, limits assumed); assay: cell-based or functional assay
T2 sequence (looked up): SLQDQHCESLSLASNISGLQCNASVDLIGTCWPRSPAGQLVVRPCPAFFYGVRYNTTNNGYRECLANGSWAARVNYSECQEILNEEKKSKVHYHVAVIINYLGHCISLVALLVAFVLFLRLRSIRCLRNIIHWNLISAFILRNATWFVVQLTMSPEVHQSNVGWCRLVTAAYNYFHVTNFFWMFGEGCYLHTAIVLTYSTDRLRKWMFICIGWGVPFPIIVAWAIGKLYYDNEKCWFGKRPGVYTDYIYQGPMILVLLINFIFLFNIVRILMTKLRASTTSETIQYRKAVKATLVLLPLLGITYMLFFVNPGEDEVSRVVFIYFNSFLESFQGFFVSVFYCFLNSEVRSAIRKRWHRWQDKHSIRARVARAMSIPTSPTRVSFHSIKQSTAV

rat CRF2R α receptor = rat CRF2R α receptor (rat, UniProt P47866 20-411); assay: cell-based or functional assay

Molecule: CC[C@H](C)[C@H](N)C(=O)N[C@H](C(=O)N[C@@H](CC(C)C)C(=O)N[C@@H](CO)C(=O)N[C@@H](CC(C)C)C(=O)N[C@@H](CC(=O)O)C(=O)N[C@H](C(=O)N1CCC[C@H]1C(=O)N[C@H](C(=O)N[C@@H](CCCCN)C(=O)N[C@@H](CC(C)C)C(=O)N[C@@H](CCCCNC(=O)COCCOCCNC(=O)COCCOCCNC(=O)CC[C@H](NC(=O)CCCCCCCCCCCCCCCCC(=O)O)C(=O)O)C(=O)N[C@@H](CCCCN)C(=O)N[C@H](C(=O)N[C@@H](CC(C)C)C(=O)N[C@@H](CC(C)C)C(=O)N[C@@H](CCC(=O)O)C(=O)N[C@@H](CCC(N)=O)C(=O)N[C@@H](CCC(=O)O)C(=O)N[C@@H](CCCCN)C(=O)N[C@@H](CCC(N)=O)C(=O)N[C@@H](CCCCN)C(=O)N[C@@H](CCCCN)C(=O)N[C@@H](CCC(N)=O)C(=O)N[C@@H](CCCNC(=N)N)C(=O)N[C@@H](CCC(=O)O)C(=O)N[C@@H](CCC(N)=O)C(=O)N[C@@H](C)C(=O)N[C@@H](CCC(=O)O)C(=O)N[C@H](C(=O)N[C@@H](CC(N)=O)C(=O)N[C@@H](CCCCN)C(=O)N[C@@H](CCC(N)=O)C(=O)N[C@H](C(=O)N[C@@H](CC(C)C)C(=O)N[C@@H](C)C(=O)N[C@@H](CCC(N)=O)C(=O)N[C@H](C(N)=O)C(C)C)[C@@H](C)CC)[C@@H](C)O)[C@@H](C)CC)[C@@H](C)CC)C(C)C)C(C)C [SEQ ID NO: 35] (H-IVLSLDVPIKLK([AEEA-AEEA-γGlu-C18 diacid])KILLEQEKQKKQREQAETNKQILAQV-NH2)
- cumulative food intake over 15 days ([1]; 8 nmol/kg s.c. every second day): 39.3 ± 2.5 g
- lean mass change ([1]; 8 nmol/kg s.c. every second day, 15 days): −6.3±1.7%
- relative body weight change ([1]; 8 nmol/kg s.c. every second day, 15 days, mean±SEM): −10.8±1.4%
- reduction in body fat content ([1]; 8 nmol/kg s.c. every second day, day 15 vs day 0): −34.2±2.9%
- food intake after first administration ([1]; 8 nmol/kg s.c., normalized after second treatment (FIG. 1)): meaningful reduction of food intake
- Duration (h): last time point for which a significant effect on BP was still seen [2]: 30 h
- Effect on Systolic Pressure % change from baseline 8 h ([2]; 8 h): −14.1%
- Effect on Systolic Pressure % change from baseline 24 h ([2]; 24 h): −5.0%

B1: peptide of SEQ ID NO: 17 (peptide)
peptide: IVLSLDVPIKLK([γGlu-Palmitoyl])KILLEQEKQKKQREQAETNKQILAQV-NH2
modifications: N-terminus assumed
SMILES: CCCCCCCCCCCCCCCC(=O)N[C@@H](CCC(=O)NCCCC[C@H](NC(=O)[C@H](CC(C)C)NC(=O)[C@H](CCCCN)NC(=O)[C@@H](NC(=O)[C@@H]1CCCN1C(=O)[C@@H](NC(=O)[C@H](CC(=O)O)NC(=O)[C@H](CC(C)C)NC(=O)[C@H](CO)NC(=O)[C@H](CC(C)C)NC(=O)[C@@H](NC(=O)[C@@H](N)[C@@H](C)CC)C(C)C)C(C)C)[C@@H](C)CC)C(=O)N[C@@H](CCCCN)C(=O)N[C@H](C(=O)N[C@@H](CC(C)C)C(=O)N[C@@H](CC(C)C)C(=O)N[C@@H](CCC(=O)O)C(=O)N[C@@H](CCC(N)=O)C(=O)N[C@@H](CCC(=O)O)C(=O)N[C@@H](CCCCN)C(=O)N[C@@H](CCC(N)=O)C(=O)N[C@@H](CCCCN)C(=O)N[C@@H](CCCCN)C(=O)N[C@@H](CCC(N)=O)C(=O)N[C@@H](CCCNC(=N)N)C(=O)N[C@@H](CCC(=O)O)C(=O)N[C@@H](CCC(N)=O)C(=O)N[C@@H](C)C(=O)N[C@@H](CCC(=O)O)C(=O)N[C@H](C(=O)N[C@@H](CC(N)=O)C(=O)N[C@@H](CCCCN)C(=O)N[C@@H](CCC(N)=O)C(=O)N[C@H](C(=O)N[C@@H](CC(C)C)C(=O)N[C@@H](C)C(=O)N[C@@H](CCC(N)=O)C(=O)N[C@H](C(N)=O)C(C)C)[C@@H](C)CC)[C@@H](C)O)[C@@H](C)CC)C(=O)O
- Ki [3]: 4.4 nM
- nH [4]: 1.5

Other lines, results leading:

- EC50[nM] 0% HSA (cAMP, CRF1R-overexpression CHO cells) [5]: > 1000 nM
- Emax (%) (cAMP, CRF1R-overexpression CHO cells) [5]: 12.3%
- Ki [3]: 5.4 nM
- nH [4]: 0.8
- EC50 [nM], 0% HSA (cAMP, A7R5 cells) (rat CRF2R α receptor): 1.74 nM
B2: peptide of SEQ ID NO: 68 (peptide)
peptide: IVLSLDVPIKLK([AEEA-AEEA-γGlu-C18 diacid])QILLEQERQKKQREQAETNKQILAQV-NH2
modifications: N-terminus assumed
SMILES: CC[C@H](C)[C@H](N)C(=O)N[C@H](C(=O)N[C@@H](CC(C)C)C(=O)N[C@@H](CO)C(=O)N[C@@H](CC(C)C)C(=O)N[C@@H](CC(=O)O)C(=O)N[C@H](C(=O)N1CCC[C@H]1C(=O)N[C@H](C(=O)N[C@@H](CCCCN)C(=O)N[C@@H](CC(C)C)C(=O)N[C@@H](CCCCNC(=O)COCCOCCNC(=O)COCCOCCNC(=O)CC[C@H](NC(=O)CCCCCCCCCCCCCCCCC(=O)O)C(=O)O)C(=O)N[C@@H](CCC(N)=O)C(=O)N[C@H](C(=O)N[C@@H](CC(C)C)C(=O)N[C@@H](CC(C)C)C(=O)N[C@@H](CCC(=O)O)C(=O)N[C@@H](CCC(N)=O)C(=O)N[C@@H](CCC(=O)O)C(=O)N[C@@H](CCCNC(=N)N)C(=O)N[C@@H](CCC(N)=O)C(=O)N[C@@H](CCCCN)C(=O)N[C@@H](CCCCN)C(=O)N[C@@H](CCC(N)=O)C(=O)N[C@@H](CCCNC(=N)N)C(=O)N[C@@H](CCC(=O)O)C(=O)N[C@@H](CCC(N)=O)C(=O)N[C@@H](C)C(=O)N[C@@H](CCC(=O)O)C(=O)N[C@H](C(=O)N[C@@H](CC(N)=O)C(=O)N[C@@H](CCCCN)C(=O)N[C@@H](CCC(N)=O)C(=O)N[C@H](C(=O)N[C@@H](CC(C)C)C(=O)N[C@@H](C)C(=O)N[C@@H](CCC(N)=O)C(=O)N[C@H](C(N)=O)C(C)C)[C@@H](C)CC)[C@@H](C)O)[C@@H](C)CC)[C@@H](C)CC)C(C)C)C(C)C

- EC50[nM] 0% HSA (cAMP, CRF1R-overexpression CHO cells) [5]: > 1000 nM
- Emax (%) (cAMP, CRF1R-overexpression CHO cells) [5]: 3.38%
- nH [4]: 0.8
- EC50 [nM], 0% HSA (cAMP, A7R5 cells) (rat CRF2R α receptor): 0.87 nM
B3: peptide of SEQ ID NO: 51 (peptide)
peptide: FTLSLDVPTKIK([AEEA-AEEA-γGlu-C18 diacid])QILLKQQKQKKERQQAEKNKQLLEQI-NH2
modifications: N-terminus assumed
SMILES: CC[C@H](C)[C@H](NC(=O)[C@H](CCC(N)=O)NC(=O)[C@H](CCC(=O)O)NC(=O)[C@H](CC(C)C)NC(=O)[C@H](CC(C)C)NC(=O)[C@H](CCC(N)=O)NC(=O)[C@H](CCCCN)NC(=O)[C@H](CC(N)=O)NC(=O)[C@H](CCCCN)NC(=O)[C@H](CCC(=O)O)NC(=O)[C@H](C)NC(=O)[C@H](CCC(N)=O)NC(=O)[C@H](CCC(N)=O)NC(=O)[C@H](CCCNC(=N)N)NC(=O)[C@H](CCC(=O)O)NC(=O)[C@H](CCCCN)NC(=O)[C@H](CCCCN)NC(=O)[C@H](CCC(N)=O)NC(=O)[C@H](CCCCN)NC(=O)[C@H](CCC(N)=O)NC(=O)[C@H](CCC(N)=O)NC(=O)[C@H](CCCCN)NC(=O)[C@H](CC(C)C)NC(=O)[C@H](CC(C)C)NC(=O)[C@@H](NC(=O)[C@H](CCC(N)=O)NC(=O)[C@H](CCCCNC(=O)COCCOCCNC(=O)COCCOCCNC(=O)CC[C@H](NC(=O)CCCCCCCCCCCCCCCCC(=O)O)C(=O)O)NC(=O)[C@@H](NC(=O)[C@H](CCCCN)NC(=O)[C@@H](NC(=O)[C@@H]1CCCN1C(=O)[C@@H](NC(=O)[C@H](CC(=O)O)NC(=O)[C@H](CC(C)C)NC(=O)[C@H](CO)NC(=O)[C@H](CC(C)C)NC(=O)[C@@H](NC(=O)[C@@H](N)Cc1ccccc1)[C@@H](C)O)C(C)C)[C@@H](C)O)[C@@H](C)CC)[C@@H](C)CC)C(N)=O
